# Test results from patent publication US20120316071A1 (published 2012).
# Changes are numbered by the printed parent chain. Names may count otherwise.
# T1: rHuman Erythropoietin R/Fc Chimera, CF (R&D Systems Cat#963-ER) (human, UniProt P19235 25-250)
# T1 construct: Bought recombinant protein; also called EPO R; EPO R/Fc; Fc part of the bought chimera not given
# T1 sequence (looked up): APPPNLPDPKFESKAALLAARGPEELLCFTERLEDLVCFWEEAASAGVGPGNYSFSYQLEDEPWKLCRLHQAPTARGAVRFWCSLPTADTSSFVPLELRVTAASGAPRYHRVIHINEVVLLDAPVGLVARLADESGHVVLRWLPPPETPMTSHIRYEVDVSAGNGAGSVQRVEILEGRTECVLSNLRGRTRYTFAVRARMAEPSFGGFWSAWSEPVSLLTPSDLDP
# B1: Fab VH1-46_IGHD6-6*01_IGHJ1*01 S102A/S103P/S104F/H111F (H:APFF) & L6_IGKJ1*01 S28N/S30D/S31H A55C (Fab, V domains shown)
# VH: QVQLVQSGAEVKKPGASVKVSCKASGYTFTSYYMHWVRQAPGQGLEWMGIINPSGGSTSYAQKFQGRVTMTRDTSTSTVYMELSSLRSEDTAVYYCAREEYAPFSAEYFQFWGQGTLVTVSS
# VL: EIVLTQSPATLSLSPGERATLSCRASQNVDHYLAWYQQKPGQAPRLLIYDASNRCTGIPARFSGSGSGTDFTLTISSLEPEDFAVYYCQQRSNWPPWTFGQGTKVEIKR
# notes: Fab made in E. coli: heavy chain from Plasmid A (CH1, His6 and Flag tags), kappa light chain from Plasmid C (kappa CL); also called H:APFF & L:NDH A55C
# B2: Fab VH1-46_IGHD6-6*01_IGHJ1*01 S102A/S103P/S104F/H111F (H:APFF) & L6_IGKJ1*01 S28N/S30D/S31H N53A (Fab, V domains shown)
# VH: B1 VH
# VL: B1 VL with N53A, C55A
# notes: Fab made in E. coli: heavy chain from Plasmid A (CH1, His6 and Flag tags), kappa light chain from Plasmid C (kappa CL); also called H:APFF & L:NDH N53A
# B3: Fab VH1-46_IGHD6-6*01_IGHJ1*01 S102A/S103P/S104F/H111F (H:APFF) & L6_IGKJ1*01 S28N/S30D/S31H N53P (Fab, V domains shown)
# VH: B1 VH
# VL: B1 VL with N53P, C55A
# notes: Fab made in E. coli: heavy chain from Plasmid A (CH1, His6 and Flag tags), kappa light chain from Plasmid C (kappa CL); also called H:APFF & L:NDH N53P
# B4: Fab VH1-46_IGHD6-6*01_IGHJ1*01 S102A/S103P/S104F/H111F (H:APFF) & L6_IGKJ1*01 S28N/S30D/S31H A55S (Fab, V domains shown)
# VH: B1 VH
# VL: B1 VL with C55S
# notes: Fab made in E. coli: heavy chain from Plasmid A (CH1, His6 and Flag tags), kappa light chain from Plasmid C (kappa CL); also called H:APFF & L:NDH A55S
# B5: Fab VH1-46_IGHD6-6*01_IGHJ1*01 S102A/S103P/S104F/H111F (H:APFF) & L6_IGKJ1*01 S28N/S30D/S31H A55R (Fab, V domains shown)
# VH: B1 VH
# VL: B1 VL with C55R
# notes: Fab made in E. coli: heavy chain from Plasmid A (CH1, His6 and Flag tags), kappa light chain from Plasmid C (kappa CL); also called H:APFF & L:NDH A55R
# B6: Fab VH5-51_IGHD5-18*01>3_IGHJ4*01 G100K/G104T (H:KT) & V3-4_IGLJ1*01 L92A (Fab, V domains shown)
# VH: EVQLVQSGAEVKKPGESLKISCKGSGYSFTSYWIGWVRQMPGKGLEWMGIIYPGDSDTRYSPSFQGQVTISADKSISTAYLQWSSLKASDTAMYYCARRKYSYTYDYFDYWGQGTLVTVSS
# VL: QTVVTQEPSFSVSPGGTVTLTCGLSSGSVSTSYYPSWYQQTPGQAPRTLIYSTNTRSSGVPDRFSGSILGNKAALTITGAQADDESDYYCVAYMGSGISYVFGTGTKVTVL
# notes: Fab; Expressed from Plasmid A (CH1, His6 and Flag tags) and Plasmid E (lambda CL); also called KT & L92A
# B7: Fab VH5-51_IGHD5-18*01>3_IGHJ4*01 & V3-4_IGLJ1*01 (Fab, V domains shown)
# VH: B6 VH with K100G, T104G
# VL: B6 VL with A92L
# notes: Tested as Fab from E. coli; VH was cloned into Plasmid A, which supplies CH1 and His6 and Flag tags; The lambda VL was cloned into Plasmid E, which supplies lambda CL; also called wildtype; parent Hit Fab VH5-51_IGHD5-18*01_IGHJ4*01 & V3-4_IGLJ1*01
# B8: Fab VH5-51_IGHD5-18*01>3_IGHJ4*01 S102A & V3-4_IGLJ1*01 (Fab, V domains shown)
# VH: B6 VH with K100G, S102A, T104G
# VL: B6 VL with A92L
# notes: Heavy chain CDR3 alanine mutant of the parent Fab; Fab format as for the parent
# B9: Fab VH5-51_IGHD5-18*01>3_IGHJ4*01 G104A & V3-4_IGLJ1*01 (Fab, V domains shown)
# VH: B6 VH with K100G, T104A
# VL: B6 VL with A92L
# notes: as for B8
# B10: Fab VH5-51_IGHD5-18*01>3_IGHJ4*01 G100A & V3-4_IGLJ1*01 (Fab, V domains shown)
# VH: B6 VH with K100A, T104G
# VL: B6 VL with A92L
# notes: as for B8
# B11: Fab VH5-51_IGHD5-18*01>3_IGHJ4*01 Y105A & V3-4_IGLJ1*01 (Fab, V domains shown)
# VH: B6 VH with K100G, T104G, Y105A
# VL: B6 VL with A92L
# notes: as for B8
# B12: Fab VH5-51_IGHD5-18*01>3_IGHJ4*01 Y103A & V3-4_IGLJ1*01 (Fab, V domains shown)
# VH: B6 VH with K100G, Y103A, T104G
# VL: B6 VL with A92L
# notes: as for B8
# Target: T2, Recombinant Human DLL4 (delta-like protein 4) (human, UniProt Q9NR61 27-524)
# T2 construct: Bought recombinant human DLL4 (R&D Systems Cat#1506-D4/CF), coated on the plate; also called rHuman DLL4; Delta-like 4
# Experiment: ELISA, DLL4 coated plate, Fab in solution; average signal minus noise
row,ELISA (Avgerage signal-noise),Binder
1,0.146,B1
2,0.151,B2
3,0.12,B3
4,0.383,B4
5,0.106,B5

# Target: T3, rHuman EGF R/Fc Chimera, CF (R&D Systems Cat#344-ER) (human, UniProt P00533 25-645)
# T3 construct: Bought recombinant protein; also called epidermal growth factor receptor; Fc part of the bought chimera not given
# Experiment: ECL multispot (MSD) binding assay, antigen spotted on plate, Fab 0.04 uM;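 further: purified Fab incubated 1 h at 20 °C on antigen spots, detected via TAG-labelled antibody, ECL read against each well's blank, with signal-to-blank of at least 4 scored as binder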
row,ECL signal,Binder
1,1010,B6

# Target: T4, rHuman P-Cadherin/Fc Chimera, CF (R&D Systems Cat#861-PC) (human, UniProt P22223 108-654)
# T4 construct: Bought recombinant protein; Fc part of the bought chimera not given
# Experiment: as above
row,ECL signal,Binder
1,326,B6

# Target: T1, rHuman Erythropoietin R/Fc Chimera, CF …
# Experiment: as above
row,ECL signal,Binder
1,582,B6

# Target: T5, Recombinant Human DLL4 (R&D Systems Cat#1506-D4/CF) (human, UniProt Q9NR61 27-524)
# T5 construct: Bought recombinant protein; also called delta-like protein 4; rHuman DLL4
# Experiment: as above
row,ECL signal,Binder
1,11700,B6

# Target: T6, Recombinant Human DLL4 (R&D Systems Cat#1506-D4/CF) (human, UniProt Q9NR61 27-529)
# T6 construct: Bought recombinant protein, coated on the plate; also called delta-like protein 4; rHuman DLL4
# Experiment: ECL 96-well plate assay (MSD), 0.1 µM Fab, plate coated with 30 µg/mL DLL4
row,Signal/Noise,Binder
1,24,B7
2,4.7,B8
3,41.5,B9
4,53.3,B10
5,1,B11
6,4,B12

# Target: T6, Recombinant Human DLL4 (R&D Systems …)
# Experiment: ECL 96-well plate assay (MSD), 0.02 µM Fab, plate coated with 15 µg/mL DLL4
row,Signal/Noise,Binder
1,15.2,B7
2,1.8,B8
3,12.5,B9
4,24.2,B10
5,1,B11
6,1.5,B12

# Target: T2, Recombinant Human DLL4 (delta-like …)
# Experiment: ECL (MSD) 96-well plate assay, recombinant human DLL4 coated, Fab in solution
row,ECL signal,Binder
1,8230,B1
2,14200,B2
3,18100,B3
4,20000,B4
5,9030,B5
